Data reported in article PMC11375898 (Frontiers in Pharmacology, 2024).
Where two headings read alike, the source gives them in different places.

Columns and labels:
[1] = test system: adult subjects with overweight/obesity; details: in vivo
Experimental: (§1) This single center, open, multiple ascending dose study was conducted at the Phase I Clinical Research Center of the Affiliated Hospital of Qingdao University, Qingdao, China. […] The duration of each dose was 0.06 mg for three consecutive days, 0.1 mg for three consecutive days, 0.14 mg for five consecutive days, and 0.2 mg for five consecutive days (Figure 1). All volunteers were hospitalized 2 days before the first dosing and placed on a standardized diet during hospitalization. All participants were required to fast overnight before the first dosing.
(§2) Safety assessments were conducted by monitoring physical examinations, vital signs (blood pressure, pulse rate, body temperature and respiratory rate), 12-lead ECG, clinical laboratory assays (blood routine, blood biochemistry and urine routine) and AEs. AEs were evaluated by the investigator throughout the study and the severity of AEs was defined in accordance with the Common Terminology Criteria for the Classification of Adverse Events of the National Cancer Institute (NCI CTCAE) version 5.0.

[2] = in vivo
Experimental: The duration of each dose was 0.06 mg for three consecutive days, 0.1 mg for three consecutive days, 0.14 mg for five consecutive days, and 0.2 mg for five consecutive days (Figure 1).
Blood samples (3 mL) were collected in vacuum tubes containing EDTA-K2 at D-1 and at pre-dosing (0 h) and 5, 10, 15, 20, 25, 30, 40, 50, 60, 90, 120, 150 and 180 min after first administration on D6, D7, D11, D12, and D16. PK blood samples were collected at the time point corresponding to the administration date for blank baseline correction on D-1. The vacuum tubes were pre-cooled in the refrigerator (2°C–8°C) for at least 0.5–1 h before use. As the stabilizer, 30 μL DPP IV inhibitor (10 μL/mL) was immediately added into the blood. The stabilizer-spiked blood samples were kept with wet ice during transportation and were centrifuged at 3,000 rpm for 10 min at 4°C to separate the plasma. Samples were stored at −80°C until analysis.
The standard curve ranged from 2.0 to 100.0 pM. The accuracy of intra-batch and inter-batch assays values were −16.7%–20.0% and −6.7%–3.2%, respectively.
The primary PK parameters were maximum observed concentration (Cmax), the area under concentration-time curve from 0 to the last measurable concentration (AUC0-t) and AUC0-inf, whereas the secondary PK parameters were median time to reach maximum concentration (Tmax), terminal half-life time (t1/2), Vz/F, apparent clearance rate (CL/F), terminal elimination rate (λz) and accumulation index (Rac).
Paired t-tests were used to compare the primary PK parameters between the 0.14 mg and 0.2 mg dose groups. Three doses (0.1, 0.14 and 0.2 mg) were evaluated for proportional dose-response relationships using power model. […] Statistical analysis was performed using SAS 9.4 (SAS Institute, Cary, NC, United States).

[3] = test system: adult subjects with overweight/obesity; assay: Safety assessment (adverse events, NCI CTCAE 5.0), phase I multiple ascending dose trial; details: N = 16
Experimental: as §1, §2

[4] = human, in vivo; cited from earlier work
[5] = parameters: method as in Chen et al., 2024; details: week 16, ref Chen et al., 2024, cited from earlier work
[6] = Total, 0.06-0.2 mg sc three times daily

recombinant human GLP-1 (7-36) [beinaglutide]
time to relief of nausea [1]: ≤ 1 h | Estimate of slope β1, Ln (AUC0-inf), proportional dose-response (power model) [2]: 1.01 | Estimate of slope β1, Ln (AUC0-t,adj), proportional dose-response (power model) [2]: 1.13 | Estimate of slope β1, Ln (Cmax), proportional dose-response (power model) [2]: 1.13 | arithmetic mean of CL/Fadj ([2]; sc): 6.81 to 7.66 L/min | arithmetic mean of Vz/Fadj ([2]; sc): 292.55 to 401.87 L | arithmetic mean of t1/2, adj ([2]; sc): 29.64 to 42.35 min | median of Tmax ([2]; sc): 10 to 15 min | median of Tmax,adj ([2]; sc): 10 to 15 min | AEs leading to death, % of subjects with event ([3]; 0.06 mg sc three times daily): 0.0% | AEs leading to death, E (number of events) ([3]; 0.06 mg sc three times daily): 0 | AEs leading to death, n (subjects with event) ([3]; 0.06 mg sc three times daily): 0 | Drug-related AEs leading to death, % of subjects with event ([3]; 0.06 mg sc three times daily): 0.0% | Drug-related AEs leading to death, E (number of events) ([3]; 0.06 mg sc three times daily): 0 | Drug-related AEs leading to death, n (subjects with event) ([3]; 0.06 mg sc three times daily): 0 | AEs leading to death, % of subjects with event ([3]; 0.1 mg sc three times daily): 0.0% | AEs leading to death, E (number of events) ([3]; 0.1 mg sc three times daily): 0 | AEs leading to death, n (subjects with event) ([3]; 0.1 mg sc three times daily): 0 | Drug-related AEs leading to death, % of subjects with event ([3]; 0.1 mg sc three times daily): 0.0% | Drug-related AEs leading to death, E (number of events) ([3]; 0.1 mg sc three times daily): 0 | Drug-related AEs leading to death, n (subjects with event) ([3]; 0.1 mg sc three times daily): 0 | AEs leading to death, % of subjects with event ([3]; 0.14 mg sc three times daily): 0.0% | AEs leading to death, E (number of events) ([3]; 0.14 mg sc three times daily): 0 | AEs leading to death, n (subjects with event) ([3]; 0.14 mg sc three times daily): 0 | Drug-related AEs leading to death, % of subjects with event ([3]; 0.14 mg sc three times daily): 0.0% | Drug-related AEs leading to death, E (number of events) ([3]; 0.14 mg sc three times daily): 0 | Drug-related AEs leading to death, n (subjects with event) ([3]; 0.14 mg sc three times daily): 0 | AEs leading to death, % of subjects with event ([3]; 0.2 mg sc three times daily): 0.0% | AEs leading to death, E (number of events) ([3]; 0.2 mg sc three times daily): 0 | AEs leading to death, n (subjects with event) ([3]; 0.2 mg sc three times daily): 0 | Drug-related AEs leading to death, % of subjects with event ([3]; 0.2 mg sc three times daily): 0.0% | Drug-related AEs leading to death, E (number of events) ([3]; 0.2 mg sc three times daily): 0 | Drug-related AEs leading to death, n (subjects with event) ([3]; 0.2 mg sc three times daily): 0 | AEs leading to death, % of subjects with event [3, 6]: 0.0% | AEs leading to death, E (number of events) [3, 6]: 0 | AEs leading to death, n (subjects with event) [3, 6]: 0 | Drug-related AEs leading to death, % of subjects with event [3, 6]: 0.0% | Drug-related AEs leading to death, E (number of events) [3, 6]: 0 | Drug-related AEs leading to death, n (subjects with event) [3, 6]: 0 | apparent volume of distribution (Vz/F) [4]: 379 L | mean weight reduction ([5]; female participants): −6.9% | mean weight reduction ([5]; male participants): −4.7%
